Biological target: purified human recombinant Src (human) (UniProt P12931)
Assay: in vitro competition; Src pre-incubated with peptide, GST-CD2 pull-down as competitor

In the case of “pNaSH2 (TAT-tagged CD2-derived peptide phosphorylated at Y260)”, the IC50 is reported as 500 nM.

Source: patent US20170183639A1
